From article doi:10.1101/2020.01.27.921122 (bioRxiv, 2020) come the findings set out here.

The assay addresses T1, recombinant human Apaf-1(1-591AA)-His (human, UniProt O14727 1-591).
T1 sequence (looked up): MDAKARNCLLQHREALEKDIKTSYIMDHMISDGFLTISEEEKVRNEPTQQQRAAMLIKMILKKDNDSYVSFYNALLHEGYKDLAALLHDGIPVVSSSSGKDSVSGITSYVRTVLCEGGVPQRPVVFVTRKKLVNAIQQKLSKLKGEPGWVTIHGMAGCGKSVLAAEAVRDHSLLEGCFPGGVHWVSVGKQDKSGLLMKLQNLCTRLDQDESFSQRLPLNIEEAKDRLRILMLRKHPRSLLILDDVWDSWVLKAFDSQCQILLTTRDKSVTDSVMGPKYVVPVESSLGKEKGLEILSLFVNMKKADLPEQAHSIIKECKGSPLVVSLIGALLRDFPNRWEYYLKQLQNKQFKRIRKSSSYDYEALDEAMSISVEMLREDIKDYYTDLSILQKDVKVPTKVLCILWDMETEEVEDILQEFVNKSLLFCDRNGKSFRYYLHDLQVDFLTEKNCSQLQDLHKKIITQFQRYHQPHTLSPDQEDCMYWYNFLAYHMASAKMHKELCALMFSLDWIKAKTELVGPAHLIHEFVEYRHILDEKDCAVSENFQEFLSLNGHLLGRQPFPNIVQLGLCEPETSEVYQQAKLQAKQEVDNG
Description: SEC. Background: Size exclusion chromatography separates by hydrodynamic size, large species first.

Several values for one entry are separate records, joined by “and”; a condition that tells them apart may be missing. Equal values may be shown once.

B1: recombinant human caspase-4 (CARD)-Fc-HA (Fc fusion, UniProt P49662 1-91, looked up)
chain: MAEGNHRKKPLKVLESLGKDFLTGVLDNLVEQNVLNWKEEEKKKYYDAKTEDKVRVMADSMQEKQRMAGQMLLQTFFNIDQISPNKKAHPN
Consider B1, for which the “stoichiometry N” value is 1.8 molecules of caspase-4 (CARD) for each Apaf (1-591) heptamer and 2.1 molecules of caspase-4 (CARD) for each Apaf (1-591) heptamer.
